Key:
Assay type in all cases: cell-based
RAJI cells = experiment: JNG assay, co-culture with RAJI cells; conditions: JNG cells expressing construct, co-culture with Raji
Method in brief: (§1)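 Read-out is NFAT-driven GFP measured by flow cytometry after ~4–18 h co-culture of SAR-expressing JNG cells with target cells (E:T about 1:2). SARs were introduced by lentiviral spinfection and selected with puromycin or blasticidin when possible; scores (+/- to 5+ ≈ 5–50% GFP+) are relative to parental JNG cells.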

L363 cells = experiment: JNG assay, co-culture with L363 cells; conditions: co-culture with L363
Method in brief: as §1

Nalm6 cells = experiment: JNG assay, co-culture with Nalm6 cells; conditions: co-culture with Nalm6
Method in brief: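 Read-out is % GFP-positive cells by flow cytometry after ~4–18 h co-culture (E:T ≈1:2) of target lines with SAR-transduced, puromycin/blasticidin-selected JNG cells. Grades +/-, +, 2+…5+ correspond to approximately 5%, 10%, 20%, 30%, 40%, 50% GFP+ over parental JNG controls.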

U266 cells = experiment: JNG NFAT-GFP induction on co-culture with U266
RAJI-CD19-KO cells = experiment: JNG assay, co-culture with RAJI-CD19-KO cells; conditions: co-culture with Raji-CD19-KO
Method in brief: as §1

B1: 22160 (protein)
chain: MALPVTALLLPLALLLHAARPACEVQLLESGGGLIQPGGSLRLSCAASGFTFSSHAMTWVRQAPGKGLEWVSAISGSGDYTHYADSVKGRFTISRDNSKNTVYLQMNSLRAEDSAVYYCAKDEDGGSLLGHRGQGTLVTVSSGTGGGGSGGGGSGGGGSEFDIQMTQSPSSLSASVGDRVTITCKASQDVGIAVAWYQQKPGKVPKLLIYWASTRHTGVPDRFSGSGSGTDFTLTISSLQPEDVATYYCQQYSSYPYTFGQGTKVEIKRLEADVSPKPTIFLPSIAETKLQKAGTYLCLLEKFFPDVIKIHWQEKKSNTILGSQEGNTMKTNDTYMKFSWLTVPEKSLDKEHRCIVRHENNKNGVDQEIIFPPIKTDVITMDPKDNCSKDANDTLLLQLTNTSAYYMYLLLLLKSVVYFAIITCCLLRRTAFCCNGEKSRAKRSGSGATNFSLLKQAGDVEENPGPTSMDWIWRILFLVGAATGAHSGPQVQLQESGGGLAQAGGSLRLSCAASGRTFSMGWFRQAPGKEREFVAAITYSGGSPYYASSVRGRFTISRDNAKNTVYLQMNSLKPEDTAVYYCAANPTYGSDWNAENWGQGTQVTVSSGSGGGGSGGGGSGGGGSFEQVQLQQPGAELVKPGASVKMSCKASGYAFSSYWINWMKQKPGQGLEWIGQIYPGDGDTNYNGKFKGRATLTADTSSSTAYMQLSSLTSEDSAVYFCARSITTVVGCAMDYWGQGTSVTVSSTRPHTKPSVFVMKNGTNVACLVKEFYPKDIRINLVSSKKITEFDPAIVISPSGKYNAVKLGKYEDSNSVTCSVQHDNKTVHSTDFEVKTDSTDHVKPKETENTKQPSKSCHKPKAIVHTEKVNMMSLTVLGLRMLFAKTVAVNFLLTAKLFFLRAKRSGSGVKQTLNFDLLKLAGDVESNPGPSRGHMTEYKPTVRLATRDDVPRAVRTLAAAFADYPATRHTVDPDRHIERVTELQELFLTRVGLDIGKVWVADDGAAVAVWTTPESVEAGAVFAEIGPRMAELSGSRLAAQQQMEGLLAPHRPKEPAWFLATVGVSPDHQGKGLGSAVVLPGVEAAERAGVPAFLETSAPRNLPFYERLGFTVTADVEVPEGPRTWCMTRKPGA
RAJI cells
  NFAT-GFP ASSAY: Raji: 2+ (refer to approximately 5%, 10%, 20%, 30%, 40% and 50% GFP positive cells)
L363 cells
  NFAT-GFP ASSAY: L363: + (refer to approximately 5%, 10%, 20%, 30%, 40% and 50% GFP positive cells)
Nalm6 cells
  NFAT-GFP ASSAY: Nalm6: + (refer to approximately 5%, 10%, 20%, 30%, 40% and 50% GFP positive cells)
U266 cells
  NFAT-GFP ASSAY: U266: 3+ (refer to approximately 5%, 10%, 20%, 30%, 40% and 50% GFP positive cells)

B2: 22220 (protein)
chain: MALPVTALLLPLALLLHAARPACEVQLLESGGGLIQPGGSLRLSCAASGFTFSSHAMTWVRQAPGKGLEWVSAISGSGDYTHYADSVKGRFTISRDNSKNTVYLQMNSLRAEDSAVYYCAKDEDGGSLLGHRGQGTLVTVSSGTGAIGFLRTAEFDIQMTQSPSSLSASVGDRVTITCKASDHINNWLAWYQQKPGQAPKLLIYGATTLETGVPSRFSGSGSGTDYTLTISSLQPEDFATYYCQQSWNTPWTFGQGTKLEIKRLEDLKNVFPPEVAVFEPSKAEIAHTQKATLVCLATGFYPDHVELSWWVNGKEVHSGVCTDPQPLKEQPALNDSRYCLSSRLRVSATFWQNPRNHFRCQVQFYGLSENDEWTQDRAKPVTQIVSAEAWGRADCGITSASYHQGVLSATILYEILLGKATLYAVLVSALVLMAMVKRKDSRGRAKRSGSGATNFSLLKQAGDVEENPGPTSATMDWIWRILFLVGAATGAHSGPEVQLVESGGGLVQAGGSLRLSCAASGRTFSMGWFRQAPGKEREFVAAITYSGGSPYYADSVKGRFTISRDNAKNTVYLQMNSLKPEDTAVYYCAANPTYGSDWNAENWGQGTQVTVSSGSGGGGSGGGGSGGGGSFEQVQLQQPGAELVKPGASVKMSCKASGYAFSSYWINWMKQKPGQGLEWIGQIYPGDGDTNYNGKFKGRATLTADTSSSTAYMQLSSLTSEDSAVYFCARSITTVVGCAMDYWGQGTSVTVSSTRIQNPDPAVYQLRDSKSSDKSVCLFTDFDSQTNVSQSKDSDVYITDKCVLDMRSMDFKSNSAVAWSNKSDFACANAFNNSIIPEDTFFPSPESSCDVKLVEKSFETDTNLNFQNLSVIGFRILLLKVAGFNLLMTLRLWSSRAKRSGSGVKQTLNFDLLKLAGDVESNPGPSRGHMTEYKPTVRLATRDDVPRAVRTLAAAFADYPATRHTVDPDRHIERVTELQELFLTRVGLDIGKVWVADDGAAVAVWTTPESVEAGAVFAEIGPRMAELSGSRLAAQQQMEGLLAPHRPKEPAWFLATVGVSPDHQGKGLGSAVVLPGVEAAERAGVPAFLETSAPRNLPFYERLGFTVTADVEVPEGPRTWCMTRKPGA
RAJI-CD19-KO cells
  NFAT-GFP ASSAY: Raji-CD19-KO: + (refer to approximately 5%, 10%, 20%, 30%, 40% and 50% GFP positive cells)
L363 cells
  NFAT-GFP ASSAY: L363: +/- (refer to approximately 5%, 10%, 20%, 30%, 40% and 50% GFP positive cells)
Nalm6 cells
  NFAT-GFP ASSAY: Nalm6: +/- (refer to approximately 5%, 10%, 20%, 30%, 40% and 50% GFP positive cells)
U266 cells
  NFAT-GFP ASSAY: U266: + (refer to approximately 5%, 10%, 20%, 30%, 40% and 50% GFP positive cells)

B3: 22224 (protein)
chain: MALPVTALLLPLALLLHAARPDIQMTQSPSSLSASVGDRVTITCKASDHINNWLAWYQQKPGQAPKLLIYGATTLETGVPSRFSGSGSGTDYTLTISSLQPEDFATYYCQQSWNTPWTFGQGTKLEIKRLEDLKNVFPPEVAVFEPSEAEISHTQKATLVCLATGFYPDHVELSWWVNGKEVHSGVCTDPQPLKEQPALNDSRYCLSSRLRVSATFWQNPRNHFRCQVQFYGLSENDEWTQDRAKPVTQIVSAEAWGRADCGFTSESYQQGVLSATILYEILLGKATLYAVLVSALVLMAMVKRKDSRGRAKRSGSGATNFSLLKQAGDVEENPGPTSATMDWIWRILFLVGAATGAHSGPEVQLVESGGGLVQAGGSLRLSCAASGRTFTMGWFRQAPGKEREFVAAISLSPTLAYYADSVKGRFTISRDNAKNTVVLQMNSLKPEDTALYYCAADRKSVMSIRPDYWGQGTQVTVSSGSALRRLLGLFGFEQVQLQQPGAELVKPGASVKMSCKASGYAFSSYWINWMKQKPGQGLEWIGQIYPGDGDTNYNGKFKGRATLTADTSSSTAYMQLSSLTSEDSAVYFCARSITTVVGCAMDYWGQGTSVTVSSTRIQNPDPAVYQLRDSKSSDKSVCLFTDFDSQTNVSQSKDSDVYITDKCVLDMRSMDFKSNSAVAWSNKSDFACANAFNNSIIPEDTFFPSPESSCDVKLVEKSFETDTNLNFQNLSVIGFRILLLKVAGFNLLMTLRLWSSRAKRSGSGVKQTLNFDLLKLAGDVESNPGPSRGHMTEYKPTVRLATRDDVPRAVRTLAAAFADYPATRHTVDPDRHIERVTELQELFLTRVGLDIGKVWVADDGAAVAVWTTPESVEAGAVFAEIGPRMAELSGSRLAAQQQMEGLLAPHRPKEPAWFLATVGVSPDHQGKGLGSAVVLPGVEAAERAGVPAFLETSAPRNLPFYERLGFTVTADVEVPEGPRTWCMTRKPGA
RAJI cells
  NFAT-GFP ASSAY: Raji: + (refer to approximately 5%, 10%, 20%, 30%, 40% and 50% GFP positive cells)
RAJI-CD19-KO cells
  NFAT-GFP ASSAY: Raji-CD19-KO: 2+ (refer to approximately 5%, 10%, 20%, 30%, 40% and 50% GFP positive cells)
L363 cells
  NFAT-GFP ASSAY: L363: 2+ (refer to approximately 5%, 10%, 20%, 30%, 40% and 50% GFP positive cells)
U266 cells
  NFAT-GFP ASSAY: U266: 4+ (refer to approximately 5%, 10%, 20%, 30%, 40% and 50% GFP positive cells)

B4: 22245 (protein)
chain: MALPVTALLLPLALLLHAARPACEVQLLESGGGLIQPGGSLRLSCAASGFTFSSHAMTWVRQAPGKGLEWVSAISGSGDYTHYADSVKGRFTISRDNSKNTVYLQMNSLRAEDSAVYYCAKDEDGGSLLGHRGQGTLVTVSSGTGAIGFLRTAEFDIQMTQSPSSLSASVGDRVTITCKASDHINNWLAWYQQKPGQAPKLLIYGATTLETGVPSRFSGSGSGTDYTLTISSLQPEDFATYYCQQSWNTPWTFGQGTKLEIKRLEDLKNVFPPEVAVFEPSKAEIAHTQKATLVCLATGFYPDHVELSWWVNGKEVHSGVCTDPQPLKEQPALNDSRYCLSSRLRVSATFWQNPRNHFRCQVQFYGLSENDEWTQDRAKPVTQIVSAEAWGRADCGITSASYHQGVLSATILYEILLGKATLYAVLVSALVLMAMVKRKDSRGRAKRSGSGATNFSLLKQAGDVEENPGPTSATMDWIWRILFLVGAATGAHSGPEVQLVESGGGLVQAGGSLRLSCAASGRTFSMGWFRQAPGKEREFVAAITYSGGSPYYADSVKGRFTISRDNAKNTVYLQMNSLKPEDTAVYYCAANPTYGSDWNAENWGQGTQVTVSSGSGGGGSGGGGSGGGGSFEQVQLQQPGAELVKPGASVKMSCKASGYAFSSYWINWMKQKPGQGLEWIGQIYPGDGDTNYNGKFKGRATLTADTSSSTAYMQLSSLTSEDSAVYFCARSITTVVGCAMDYWGQGTSVTVSSTRIQNPDPAVYQLRDSKSSDKSVCLFTDFDSQTNVSQSKDSDVYITDKCVLDMRSMDFKSNSAVAWSNKSDFACANAFNNSIIPEDTFFPSPESSCDVKLVEKSFETDTNLNFQNLSVIGFRILLLKVAGFNLLMTLRLWSSRAKRSGSGVKQTLNFDLLKLAGDVESNPGPSRGHMTEYKPTVRLATRDDVPRAVRTLAAAFADYPATRHTVDPDRHIERVTELQELFLTRVGLDIGKVWVADDGAAVAVWTTPESVEAGAVFAEIGPRMAELSGSRLAAQQQMEGLLAPHRPKEPAWFLATVGVSPDHQGKGLGSAVVLPGVEAAERAGVPAFLETSAPRNLPFYERLGFTVTADVEVPEGPRTWCMTRKPGA
RAJI-CD19-KO cells
  NFAT-GFP ASSAY: Raji-CD19-KO: + (refer to approximately 5%, 10%, 20%, 30%, 40% and 50% GFP positive cells)
L363 cells
  NFAT-GFP ASSAY: L363: +/- (refer to approximately 5%, 10%, 20%, 30%, 40% and 50% GFP positive cells)
Nalm6 cells
  NFAT-GFP ASSAY: Nalm6: +/- (refer to approximately 5%, 10%, 20%, 30%, 40% and 50% GFP positive cells)
U266 cells
  NFAT-GFP ASSAY: U266: + (refer to approximately 5%, 10%, 20%, 30%, 40% and 50% GFP positive cells)

From patent US20230212319A1, “NOVEL ANTIGEN BINDING DOMAINS AND SYNTHETIC ANTIGEN RECEPTORS INCORPORATING THE SAME” (University of Southern California, priority 2020, published 2023)
